Key:
[1] = target: T1, FcγRIIb extracellular domain with C-terminal His tag (human, UniProt P31994 43-217); experiment: SPR, relative binding, HoCon Ab = 100
T1 construct: extracellular domain; also called FcgRIIb; 2b; not shown: His tag at the C terminus
T1 sequence (looked up): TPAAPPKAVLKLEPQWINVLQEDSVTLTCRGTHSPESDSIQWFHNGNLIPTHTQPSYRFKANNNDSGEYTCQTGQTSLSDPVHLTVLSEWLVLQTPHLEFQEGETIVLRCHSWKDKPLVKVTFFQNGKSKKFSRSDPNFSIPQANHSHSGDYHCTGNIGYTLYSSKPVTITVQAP
Method: (§1) Analysis of interaction between objective antibody and the FcγR was carried out using Biacore T100 (GE Healthcare). HBS-EP+ (GE Healthcare) was used as the running buffer, and the measurement temperature was set to 25° C. Chips produced by immobilizing the antigen peptide by the amine coupling method to a Series S Sencor Chip CM5 (GE Healthcare), or alternatively, chips produced by allowing preliminarily biotinylated antigen peptides to interact with and immobilize onto a Series S Sensor Chip SA (certified) (GE Healthcare) were used. Antibodies of interest were captured onto an antigen peptide-immobilized chip, and allowed to interact to each FcγR diluted with running buffer. To regenerate and repeatedly use the chip, the antibodies captured on the chip were washed off by reacting 10 mM glycine-HCl, pH 1.5.

[2] = target: T1, FcγRIIb extracellular domain with …; experiment: SPR, relative binding, HeCon Ab = 100
Method: as §1

B1: GpH7-B3 variant S239_03V/GpL16-k0 (antibody, human IgG1, kappa)
heavy: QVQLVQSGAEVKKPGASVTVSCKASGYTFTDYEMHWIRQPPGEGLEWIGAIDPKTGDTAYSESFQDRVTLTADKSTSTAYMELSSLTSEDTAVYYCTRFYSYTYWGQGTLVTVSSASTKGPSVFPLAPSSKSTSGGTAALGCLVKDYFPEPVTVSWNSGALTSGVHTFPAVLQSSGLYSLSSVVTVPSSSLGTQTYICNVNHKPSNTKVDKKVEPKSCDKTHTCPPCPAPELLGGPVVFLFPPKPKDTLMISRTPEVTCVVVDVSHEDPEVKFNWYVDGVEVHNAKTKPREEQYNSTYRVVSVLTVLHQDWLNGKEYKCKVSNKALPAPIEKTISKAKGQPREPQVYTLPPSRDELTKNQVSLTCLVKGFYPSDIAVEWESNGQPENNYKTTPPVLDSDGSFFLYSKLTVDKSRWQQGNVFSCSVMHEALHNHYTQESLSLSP
light: DIVMTQSPLSLPVTPGEPASISCQASESLVHSNRNTYLHWYLQKPGQSPQLLIYKVSNRFSGVPDRFSGSGSGTDFTLKISRVEAEDVGVYYCSQNTHVPPTFGQGTKVEIERTVAAPSVFIFPPSDEQLKSGTASVVCLLNNFYPREAKVQWKVDNALQSGNSQESVTEQDSKDSTYSLSSTLTLSKADYEKHKVYACEVTHQGLSSPVTKSFNRGEC
notes: also called Ho Ab S239_03V
Ho/Con_2b [1]: 108 % of control

B2: GpH7-A5/GpH7-B3 variant K326_07I/GpL16-k0 (antibody, human IgG1, kappa)
heavy 1: not shown
heavy 2: not shown
light: DIVMTQSPLSLPVTPGEPASISCQASESLVHSNRNTYLHWYLQKPGQSPQLLIYKVSNRFSGVPDRFSGSGSGTDFTLKISRVEAEDVGVYYCSQNTHVPPTFGQGTKVEIERTVAAPSVFIFPPSDEQLKSGTASVVCLLNNFYPREAKVQWKVDNALQSGNSQESVTEQDSKDSTYSLSSTLTLSKADYEKHKVYACEVTHQGLSSPVTKSFNRGEC
notes: also called He Ab K326_07I
He/Con_2b [2]: 199 % of control

B3: GpH7-B3 variant T335_07I/GpL16-k0 (antibody, human IgG1, kappa)
heavy: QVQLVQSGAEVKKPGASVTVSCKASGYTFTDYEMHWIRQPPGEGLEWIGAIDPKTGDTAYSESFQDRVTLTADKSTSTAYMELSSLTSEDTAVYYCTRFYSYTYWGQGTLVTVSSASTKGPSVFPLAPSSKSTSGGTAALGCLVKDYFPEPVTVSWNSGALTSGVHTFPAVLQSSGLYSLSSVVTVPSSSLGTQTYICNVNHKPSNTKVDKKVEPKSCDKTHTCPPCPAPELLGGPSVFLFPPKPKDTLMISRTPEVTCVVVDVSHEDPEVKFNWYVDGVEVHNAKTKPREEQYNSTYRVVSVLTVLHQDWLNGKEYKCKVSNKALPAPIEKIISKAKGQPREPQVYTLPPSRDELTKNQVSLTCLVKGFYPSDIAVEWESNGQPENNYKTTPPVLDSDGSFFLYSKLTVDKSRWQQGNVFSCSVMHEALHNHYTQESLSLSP
light: DIVMTQSPLSLPVTPGEPASISCQASESLVHSNRNTYLHWYLQKPGQSPQLLIYKVSNRFSGVPDRFSGSGSGTDFTLKISRVEAEDVGVYYCSQNTHVPPTFGQGTKVEIERTVAAPSVFIFPPSDEQLKSGTASVVCLLNNFYPREAKVQWKVDNALQSGNSQESVTEQDSKDSTYSLSSTLTLSKADYEKHKVYACEVTHQGLSSPVTKSFNRGEC
notes: also called Ho Ab T335_07I
Ho/Con_2b [1]: 104 % of control

B4: GpH7-B3 variant T335_15Y/GpL16-k0 (antibody, human IgG1, kappa)
heavy: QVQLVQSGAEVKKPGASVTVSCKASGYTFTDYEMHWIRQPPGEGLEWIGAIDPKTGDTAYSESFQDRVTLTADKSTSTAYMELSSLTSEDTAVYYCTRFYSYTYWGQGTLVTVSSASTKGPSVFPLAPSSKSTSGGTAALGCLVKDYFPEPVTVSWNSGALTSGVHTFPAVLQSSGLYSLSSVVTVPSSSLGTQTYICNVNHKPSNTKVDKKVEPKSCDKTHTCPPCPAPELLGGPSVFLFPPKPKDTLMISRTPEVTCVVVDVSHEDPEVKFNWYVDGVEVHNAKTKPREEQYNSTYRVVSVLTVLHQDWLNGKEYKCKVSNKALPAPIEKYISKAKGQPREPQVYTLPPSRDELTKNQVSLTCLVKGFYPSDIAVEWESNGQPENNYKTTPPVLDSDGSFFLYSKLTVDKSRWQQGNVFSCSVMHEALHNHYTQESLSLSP
light: DIVMTQSPLSLPVTPGEPASISCQASESLVHSNRNTYLHWYLQKPGQSPQLLIYKVSNRFSGVPDRFSGSGSGTDFTLKISRVEAEDVGVYYCSQNTHVPPTFGQGTKVEIERTVAAPSVFIFPPSDEQLKSGTASVVCLLNNFYPREAKVQWKVDNALQSGNSQESVTEQDSKDSTYSLSSTLTLSKADYEKHKVYACEVTHQGLSSPVTKSFNRGEC
notes: also called Ho Ab T335_15Y
Ho/Con_2b [1]: 104 % of control

B5: GpH7-B3 variant S324_06M/GpL16-k0 (antibody, human IgG1, kappa)
heavy: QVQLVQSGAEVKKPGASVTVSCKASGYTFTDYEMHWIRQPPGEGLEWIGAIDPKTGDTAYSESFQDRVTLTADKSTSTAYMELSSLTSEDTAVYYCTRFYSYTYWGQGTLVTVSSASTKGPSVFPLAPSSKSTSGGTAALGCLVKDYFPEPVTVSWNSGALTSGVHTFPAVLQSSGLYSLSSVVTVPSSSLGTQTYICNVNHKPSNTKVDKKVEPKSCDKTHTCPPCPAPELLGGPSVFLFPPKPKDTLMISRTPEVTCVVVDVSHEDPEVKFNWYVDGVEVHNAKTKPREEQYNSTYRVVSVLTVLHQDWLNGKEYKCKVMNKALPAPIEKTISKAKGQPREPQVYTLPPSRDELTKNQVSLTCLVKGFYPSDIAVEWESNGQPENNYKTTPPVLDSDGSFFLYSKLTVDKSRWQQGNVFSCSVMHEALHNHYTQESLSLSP
light: DIVMTQSPLSLPVTPGEPASISCQASESLVHSNRNTYLHWYLQKPGQSPQLLIYKVSNRFSGVPDRFSGSGSGTDFTLKISRVEAEDVGVYYCSQNTHVPPTFGQGTKVEIERTVAAPSVFIFPPSDEQLKSGTASVVCLLNNFYPREAKVQWKVDNALQSGNSQESVTEQDSKDSTYSLSSTLTLSKADYEKHKVYACEVTHQGLSSPVTKSFNRGEC
notes: also called Ho Ab S324_06M
Ho/Con_2b [1]: 104 % of control

B6: GpH7-A5/GpH7-B3 variant A327_09D/GpL16-k0 (antibody, human IgG1, kappa)
heavy 1: not shown
heavy 2: not shown
light: DIVMTQSPLSLPVTPGEPASISCQASESLVHSNRNTYLHWYLQKPGQSPQLLIYKVSNRFSGVPDRFSGSGSGTDFTLKISRVEAEDVGVYYCSQNTHVPPTFGQGTKVEIERTVAAPSVFIFPPSDEQLKSGTASVVCLLNNFYPREAKVQWKVDNALQSGNSQESVTEQDSKDSTYSLSSTLTLSKADYEKHKVYACEVTHQGLSSPVTKSFNRGEC
notes: also called He Ab A327_09D
He/Con_2b [2]: 172 % of control

B7: GpH7-B3 variant Y296_20W/GpL16-k0 (antibody, human IgG1, kappa)
heavy: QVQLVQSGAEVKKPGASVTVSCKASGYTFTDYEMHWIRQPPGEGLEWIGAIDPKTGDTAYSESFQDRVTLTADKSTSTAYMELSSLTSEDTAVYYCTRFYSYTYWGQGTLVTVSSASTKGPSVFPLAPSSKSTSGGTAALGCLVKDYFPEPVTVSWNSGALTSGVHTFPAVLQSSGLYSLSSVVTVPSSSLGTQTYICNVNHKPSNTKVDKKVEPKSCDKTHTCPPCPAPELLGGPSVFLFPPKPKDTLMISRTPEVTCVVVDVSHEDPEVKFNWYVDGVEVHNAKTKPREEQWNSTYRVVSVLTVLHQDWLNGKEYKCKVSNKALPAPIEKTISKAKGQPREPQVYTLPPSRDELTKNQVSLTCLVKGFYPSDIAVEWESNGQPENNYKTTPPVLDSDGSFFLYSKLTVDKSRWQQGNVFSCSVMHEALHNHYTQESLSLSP
light: DIVMTQSPLSLPVTPGEPASISCQASESLVHSNRNTYLHWYLQKPGQSPQLLIYKVSNRFSGVPDRFSGSGSGTDFTLKISRVEAEDVGVYYCSQNTHVPPTFGQGTKVEIERTVAAPSVFIFPPSDEQLKSGTASVVCLLNNFYPREAKVQWKVDNALQSGNSQESVTEQDSKDSTYSLSSTLTLSKADYEKHKVYACEVTHQGLSSPVTKSFNRGEC
notes: also called Ho Ab Y296_20W
Ho/Con_2b [1]: 103 % of control

B8: GpH7-B3 variant S337_16H/GpL16-k0 (antibody, human IgG1, kappa)
heavy: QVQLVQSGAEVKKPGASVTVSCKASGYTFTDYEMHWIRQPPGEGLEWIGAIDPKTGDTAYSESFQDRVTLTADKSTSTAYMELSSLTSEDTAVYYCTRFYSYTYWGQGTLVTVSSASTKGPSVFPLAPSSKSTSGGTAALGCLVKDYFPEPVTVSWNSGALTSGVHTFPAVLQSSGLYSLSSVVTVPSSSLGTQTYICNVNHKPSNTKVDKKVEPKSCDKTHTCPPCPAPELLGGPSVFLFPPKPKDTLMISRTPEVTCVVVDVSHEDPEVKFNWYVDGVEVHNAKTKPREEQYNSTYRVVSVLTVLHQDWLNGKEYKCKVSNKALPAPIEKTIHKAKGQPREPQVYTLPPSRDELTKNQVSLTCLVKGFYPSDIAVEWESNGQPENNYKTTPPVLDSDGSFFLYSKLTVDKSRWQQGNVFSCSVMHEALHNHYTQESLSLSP
light: DIVMTQSPLSLPVTPGEPASISCQASESLVHSNRNTYLHWYLQKPGQSPQLLIYKVSNRFSGVPDRFSGSGSGTDFTLKISRVEAEDVGVYYCSQNTHVPPTFGQGTKVEIERTVAAPSVFIFPPSDEQLKSGTASVVCLLNNFYPREAKVQWKVDNALQSGNSQESVTEQDSKDSTYSLSSTLTLSKADYEKHKVYACEVTHQGLSSPVTKSFNRGEC
notes: also called Ho Ab S337_16H
Ho/Con_2b [1]: 103 % of control

B9: GpH7-A5/GpH7-B3 variant G236_10E/GpL16-k0 (antibody, human IgG1, kappa)
heavy 1: not shown
heavy 2: not shown
light: DIVMTQSPLSLPVTPGEPASISCQASESLVHSNRNTYLHWYLQKPGQSPQLLIYKVSNRFSGVPDRFSGSGSGTDFTLKISRVEAEDVGVYYCSQNTHVPPTFGQGTKVEIERTVAAPSVFIFPPSDEQLKSGTASVVCLLNNFYPREAKVQWKVDNALQSGNSQESVTEQDSKDSTYSLSSTLTLSKADYEKHKVYACEVTHQGLSSPVTKSFNRGEC
notes: also called He Ab G236_10E
He/Con_2b [2]: 110 % of control

B10: GpH7-A5/GpH7-B3 variant H268_01G/GpL16-k0 (antibody, human IgG1, kappa)
heavy 1: not shown
heavy 2: not shown
light: DIVMTQSPLSLPVTPGEPASISCQASESLVHSNRNTYLHWYLQKPGQSPQLLIYKVSNRFSGVPDRFSGSGSGTDFTLKISRVEAEDVGVYYCSQNTHVPPTFGQGTKVEIERTVAAPSVFIFPPSDEQLKSGTASVVCLLNNFYPREAKVQWKVDNALQSGNSQESVTEQDSKDSTYSLSSTLTLSKADYEKHKVYACEVTHQGLSSPVTKSFNRGEC
notes: also called He Ab H268_01G
He/Con_2b [2]: 144 % of control

B11: GpH7-B3 variant T335_10E/GpL16-k0 (antibody, human IgG1, kappa)
heavy: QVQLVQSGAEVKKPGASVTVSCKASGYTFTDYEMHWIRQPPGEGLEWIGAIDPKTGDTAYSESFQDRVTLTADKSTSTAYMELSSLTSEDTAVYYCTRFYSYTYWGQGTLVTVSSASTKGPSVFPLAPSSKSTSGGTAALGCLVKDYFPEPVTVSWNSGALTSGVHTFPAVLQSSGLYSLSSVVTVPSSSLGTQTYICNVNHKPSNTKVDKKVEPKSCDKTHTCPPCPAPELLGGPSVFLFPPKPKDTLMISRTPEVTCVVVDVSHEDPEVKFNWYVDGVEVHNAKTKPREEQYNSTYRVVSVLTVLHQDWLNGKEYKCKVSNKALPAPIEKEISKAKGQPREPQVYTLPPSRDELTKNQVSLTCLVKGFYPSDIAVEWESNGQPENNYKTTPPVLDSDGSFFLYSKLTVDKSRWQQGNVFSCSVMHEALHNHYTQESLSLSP
light: DIVMTQSPLSLPVTPGEPASISCQASESLVHSNRNTYLHWYLQKPGQSPQLLIYKVSNRFSGVPDRFSGSGSGTDFTLKISRVEAEDVGVYYCSQNTHVPPTFGQGTKVEIERTVAAPSVFIFPPSDEQLKSGTASVVCLLNNFYPREAKVQWKVDNALQSGNSQESVTEQDSKDSTYSLSSTLTLSKADYEKHKVYACEVTHQGLSSPVTKSFNRGEC
notes: also called Ho Ab T335_10E
Ho/Con_2b [1]: 108 % of control

B12: GpH7-B3 variant V266_06M/GpL16-k0 (antibody, human IgG1, kappa)
heavy: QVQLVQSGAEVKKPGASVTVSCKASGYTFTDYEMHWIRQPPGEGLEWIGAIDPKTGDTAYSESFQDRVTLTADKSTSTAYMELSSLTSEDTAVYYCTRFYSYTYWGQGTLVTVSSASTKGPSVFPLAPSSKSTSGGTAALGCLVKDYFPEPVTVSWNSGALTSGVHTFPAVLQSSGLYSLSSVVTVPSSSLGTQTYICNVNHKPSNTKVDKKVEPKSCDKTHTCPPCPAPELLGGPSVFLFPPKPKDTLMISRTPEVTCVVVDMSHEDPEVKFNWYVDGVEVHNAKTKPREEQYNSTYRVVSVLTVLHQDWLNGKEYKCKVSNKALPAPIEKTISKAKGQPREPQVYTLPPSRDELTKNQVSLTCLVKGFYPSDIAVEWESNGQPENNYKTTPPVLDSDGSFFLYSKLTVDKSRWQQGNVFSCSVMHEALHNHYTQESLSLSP
light: DIVMTQSPLSLPVTPGEPASISCQASESLVHSNRNTYLHWYLQKPGQSPQLLIYKVSNRFSGVPDRFSGSGSGTDFTLKISRVEAEDVGVYYCSQNTHVPPTFGQGTKVEIERTVAAPSVFIFPPSDEQLKSGTASVVCLLNNFYPREAKVQWKVDNALQSGNSQESVTEQDSKDSTYSLSSTLTLSKADYEKHKVYACEVTHQGLSSPVTKSFNRGEC
notes: also called Ho Ab V266_06M
Ho/Con_2b [1]: 231 % of control

B13: GpH7-A5/GpH7-B3 variant G237_04F/GpL16-k0 (antibody, human IgG1, kappa)
heavy 1: not shown
heavy 2: not shown
light: DIVMTQSPLSLPVTPGEPASISCQASESLVHSNRNTYLHWYLQKPGQSPQLLIYKVSNRFSGVPDRFSGSGSGTDFTLKISRVEAEDVGVYYCSQNTHVPPTFGQGTKVEIERTVAAPSVFIFPPSDEQLKSGTASVVCLLNNFYPREAKVQWKVDNALQSGNSQESVTEQDSKDSTYSLSSTLTLSKADYEKHKVYACEVTHQGLSSPVTKSFNRGEC
notes: also called He Ab G237_04F
He/Con_2b [2]: 149 % of control

B14: GpH7-A5/GpH7-B3 variant A327_10E/GpL16-k0 (antibody, human IgG1, kappa)
heavy 1: not shown
heavy 2: not shown
light: DIVMTQSPLSLPVTPGEPASISCQASESLVHSNRNTYLHWYLQKPGQSPQLLIYKVSNRFSGVPDRFSGSGSGTDFTLKISRVEAEDVGVYYCSQNTHVPPTFGQGTKVEIERTVAAPSVFIFPPSDEQLKSGTASVVCLLNNFYPREAKVQWKVDNALQSGNSQESVTEQDSKDSTYSLSSTLTLSKADYEKHKVYACEVTHQGLSSPVTKSFNRGEC
notes: also called He Ab A327_10E
He/Con_2b [2]: 140 % of control

B15: GpH7-A5/GpH7-B3 variant G236_09D/GpL16-k0 (antibody, human IgG1, kappa)
heavy 1: not shown
heavy 2: not shown
light: DIVMTQSPLSLPVTPGEPASISCQASESLVHSNRNTYLHWYLQKPGQSPQLLIYKVSNRFSGVPDRFSGSGSGTDFTLKISRVEAEDVGVYYCSQNTHVPPTFGQGTKVEIERTVAAPSVFIFPPSDEQLKSGTASVVCLLNNFYPREAKVQWKVDNALQSGNSQESVTEQDSKDSTYSLSSTLTLSKADYEKHKVYACEVTHQGLSSPVTKSFNRGEC
notes: also called He Ab G236_09D
He/Con_2b [2]: 167 % of control

B16: GpH7-B3 variant S267_06M/GpL16-k0 (antibody, human IgG1, kappa)
heavy: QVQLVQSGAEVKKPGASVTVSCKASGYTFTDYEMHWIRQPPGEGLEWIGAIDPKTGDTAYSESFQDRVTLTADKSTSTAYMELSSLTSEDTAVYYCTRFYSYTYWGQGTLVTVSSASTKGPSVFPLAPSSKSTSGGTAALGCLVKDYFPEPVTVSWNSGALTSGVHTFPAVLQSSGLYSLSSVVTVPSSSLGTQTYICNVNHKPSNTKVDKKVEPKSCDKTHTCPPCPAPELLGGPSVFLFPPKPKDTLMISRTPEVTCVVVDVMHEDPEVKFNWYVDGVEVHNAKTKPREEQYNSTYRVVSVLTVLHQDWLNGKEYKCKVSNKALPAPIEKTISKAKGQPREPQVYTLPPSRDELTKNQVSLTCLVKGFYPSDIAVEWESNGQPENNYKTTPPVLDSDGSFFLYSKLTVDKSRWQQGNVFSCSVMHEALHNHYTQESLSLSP
light: DIVMTQSPLSLPVTPGEPASISCQASESLVHSNRNTYLHWYLQKPGQSPQLLIYKVSNRFSGVPDRFSGSGSGTDFTLKISRVEAEDVGVYYCSQNTHVPPTFGQGTKVEIERTVAAPSVFIFPPSDEQLKSGTASVVCLLNNFYPREAKVQWKVDNALQSGNSQESVTEQDSKDSTYSLSSTLTLSKADYEKHKVYACEVTHQGLSSPVTKSFNRGEC
notes: also called Ho Ab S267_06M
Ho/Con_2b [1]: 187 % of control

B17: GpH7-A5/GpH7-B3 variant G237_20W/GpL16-k0 (antibody, human IgG1, kappa)
heavy 1: not shown
heavy 2: not shown
light: DIVMTQSPLSLPVTPGEPASISCQASESLVHSNRNTYLHWYLQKPGQSPQLLIYKVSNRFSGVPDRFSGSGSGTDFTLKISRVEAEDVGVYYCSQNTHVPPTFGQGTKVEIERTVAAPSVFIFPPSDEQLKSGTASVVCLLNNFYPREAKVQWKVDNALQSGNSQESVTEQDSKDSTYSLSSTLTLSKADYEKHKVYACEVTHQGLSSPVTKSFNRGEC
notes: also called He Ab G237_20W
He/Con_2b [2]: 193 % of control

B18: GpH7-B3 variant S239_10E/GpL16-k0 (antibody, human IgG1, kappa)
heavy: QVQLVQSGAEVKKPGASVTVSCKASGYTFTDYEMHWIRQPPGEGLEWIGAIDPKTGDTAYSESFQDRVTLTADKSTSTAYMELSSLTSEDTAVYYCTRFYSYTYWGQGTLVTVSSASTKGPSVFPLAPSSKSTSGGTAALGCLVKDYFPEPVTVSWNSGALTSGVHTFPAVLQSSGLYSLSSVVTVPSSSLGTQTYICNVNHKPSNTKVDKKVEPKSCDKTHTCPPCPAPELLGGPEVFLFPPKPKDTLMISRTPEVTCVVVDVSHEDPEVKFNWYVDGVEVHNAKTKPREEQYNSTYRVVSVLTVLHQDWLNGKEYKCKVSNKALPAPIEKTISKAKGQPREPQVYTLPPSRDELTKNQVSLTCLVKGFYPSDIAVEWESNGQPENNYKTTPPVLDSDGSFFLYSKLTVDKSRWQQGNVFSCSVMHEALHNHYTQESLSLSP
light: DIVMTQSPLSLPVTPGEPASISCQASESLVHSNRNTYLHWYLQKPGQSPQLLIYKVSNRFSGVPDRFSGSGSGTDFTLKISRVEAEDVGVYYCSQNTHVPPTFGQGTKVEIERTVAAPSVFIFPPSDEQLKSGTASVVCLLNNFYPREAKVQWKVDNALQSGNSQESVTEQDSKDSTYSLSSTLTLSKADYEKHKVYACEVTHQGLSSPVTKSFNRGEC
notes: also called Ho Ab S239_10E
Ho/Con_2b [1]: 175 % of control

B19: GpH7-B3 variant S267_19Q/GpL16-k0 (antibody, human IgG1, kappa)
heavy: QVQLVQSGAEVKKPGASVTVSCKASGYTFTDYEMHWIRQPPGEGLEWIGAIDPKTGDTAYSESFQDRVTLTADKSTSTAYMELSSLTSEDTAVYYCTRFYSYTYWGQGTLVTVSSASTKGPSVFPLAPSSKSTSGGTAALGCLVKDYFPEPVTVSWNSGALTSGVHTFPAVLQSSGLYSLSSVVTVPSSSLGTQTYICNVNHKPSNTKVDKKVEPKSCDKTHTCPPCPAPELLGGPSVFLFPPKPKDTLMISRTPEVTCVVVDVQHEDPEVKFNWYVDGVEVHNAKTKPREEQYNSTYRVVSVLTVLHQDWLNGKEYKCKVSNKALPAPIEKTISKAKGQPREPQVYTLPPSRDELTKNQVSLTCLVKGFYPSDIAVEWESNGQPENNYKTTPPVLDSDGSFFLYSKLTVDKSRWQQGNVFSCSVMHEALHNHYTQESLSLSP
light: DIVMTQSPLSLPVTPGEPASISCQASESLVHSNRNTYLHWYLQKPGQSPQLLIYKVSNRFSGVPDRFSGSGSGTDFTLKISRVEAEDVGVYYCSQNTHVPPTFGQGTKVEIERTVAAPSVFIFPPSDEQLKSGTASVVCLLNNFYPREAKVQWKVDNALQSGNSQESVTEQDSKDSTYSLSSTLTLSKADYEKHKVYACEVTHQGLSSPVTKSFNRGEC
notes: also called Ho Ab S267_19Q
Ho/Con_2b [1]: 185 % of control

B20: GpH7-A5/GpH7-B3 variant A330_01G/GpL16-k0 (antibody, human IgG1, kappa)
heavy 1: not shown
heavy 2: not shown
light: DIVMTQSPLSLPVTPGEPASISCQASESLVHSNRNTYLHWYLQKPGQSPQLLIYKVSNRFSGVPDRFSGSGSGTDFTLKISRVEAEDVGVYYCSQNTHVPPTFGQGTKVEIERTVAAPSVFIFPPSDEQLKSGTASVVCLLNNFYPREAKVQWKVDNALQSGNSQESVTEQDSKDSTYSLSSTLTLSKADYEKHKVYACEVTHQGLSSPVTKSFNRGEC
notes: also called He Ab A330_01G
He/Con_2b [2]: 104 % of control
